Data from publication PMC4624055 (The Journal of allergy and clinical immunology, 2015).

Target: the molecule itself
Test: crystal structure

Row | Protein | stoichiometry N
1 | Bla g 5 (enzyme, Blattella germanica, UniProt O18598 1-204, looked up) MAPSYKLTYCPVKALGEPIRFLLSYGEKDFEDYRFQEGDWPNLKPSMPFGKTPVLEIDGKQTHQSVAISRYLGKQFGLSGKDDWENLEIDMIVDTISDFRAAIANYHYDADENSKQKKWDPLKKETIPYYTKKFDEVVKANGGYLAAGKLTWADFYFVAILDYLNHMAKEDLVANQPNLKALREKVLGLPAIKAWVAKRPPTDL | 2
2 | Asc s 13 (enzyme, Ascaris suum, UniProt P46436 1-206, looked up) MPQYKLTYFDIRGLGEGARLIFHQAGVKFEDNRLKREDWPALKPKTPFGQLPLLEVDGEVLAQSAAIYRYLGRQFGLAGKTPMEEAQVDSIFDQFKDFMAELRPCFRVLAGFEEGDKEKVLKEVAVPARDKHLPLLEKFLAKSGSEYMVGKSVTWADLVITDSLASWESLIPDFLSGHLQLKKYIEHVRELPNIKKWIAERPKTPY | 2
